Test results: patent publication US20050222029A1 (MYRIAD GENETICS, published 2005)

Columns and labels:
[1] = target: T1, Mitotic spindle coiled-coil related protein 723-1012 (human, UniProt Q96R06 723-1012); assay: yeast two-hybrid
T1 construct: prey (Gal4 AD-HA fusion)
T1 sequence (looked up): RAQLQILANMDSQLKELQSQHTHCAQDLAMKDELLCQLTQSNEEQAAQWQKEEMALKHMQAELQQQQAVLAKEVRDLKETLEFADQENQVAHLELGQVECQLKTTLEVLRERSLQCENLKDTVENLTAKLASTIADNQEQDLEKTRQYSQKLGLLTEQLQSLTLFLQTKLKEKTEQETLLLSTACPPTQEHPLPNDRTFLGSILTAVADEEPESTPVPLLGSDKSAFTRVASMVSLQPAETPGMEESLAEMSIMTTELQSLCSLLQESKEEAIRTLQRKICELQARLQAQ

[2] = target: T2, Mitotic spindle coiled-coil related protein 668-895 (human, UniProt Q96R06 668-895); assay: yeast two-hybrid
T2 construct: prey (Gal4 AD-HA fusion)
T2 sequence (looked up): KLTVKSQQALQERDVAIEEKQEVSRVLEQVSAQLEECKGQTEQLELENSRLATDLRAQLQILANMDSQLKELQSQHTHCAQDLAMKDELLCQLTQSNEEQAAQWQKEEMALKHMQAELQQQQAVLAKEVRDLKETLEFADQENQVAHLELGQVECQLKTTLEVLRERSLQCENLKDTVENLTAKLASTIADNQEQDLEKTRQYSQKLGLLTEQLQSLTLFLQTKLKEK

Keratin 8 147-406 = target: T3, Keratin 8 147-406 (human, UniProt P05787 147-406); assay: yeast two-hybrid
T3 construct: prey (Gal4 AD-HA fusion)
T3 sequence (looked up): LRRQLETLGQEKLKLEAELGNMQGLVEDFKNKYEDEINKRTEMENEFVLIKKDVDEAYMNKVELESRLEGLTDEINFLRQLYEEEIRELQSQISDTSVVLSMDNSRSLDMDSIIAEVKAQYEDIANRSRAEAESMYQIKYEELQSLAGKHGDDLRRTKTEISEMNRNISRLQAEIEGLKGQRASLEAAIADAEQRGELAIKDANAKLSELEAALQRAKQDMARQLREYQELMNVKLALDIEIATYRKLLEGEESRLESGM

Hook2 protein 290-555 = target: T4, Hook2 protein 290-555 (human, UniProt Q96ED9 290-555); assay: yeast two-hybrid
T4 construct: prey (Gal4 AD-HA fusion)
T4 sequence (looked up): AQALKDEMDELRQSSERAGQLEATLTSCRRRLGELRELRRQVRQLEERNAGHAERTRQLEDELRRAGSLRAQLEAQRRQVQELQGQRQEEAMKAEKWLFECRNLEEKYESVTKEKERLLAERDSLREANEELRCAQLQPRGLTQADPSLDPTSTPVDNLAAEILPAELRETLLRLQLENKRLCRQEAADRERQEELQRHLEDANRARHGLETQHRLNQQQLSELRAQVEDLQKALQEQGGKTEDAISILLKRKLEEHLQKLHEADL

[3] = target: T5, GTPase-activiating protein 1 1419-1657 (human, UniProt P46940 1419-1657); assay: yeast two-hybrid
T5 construct: prey (Gal4 AD-HA fusion); also called IQGAP1; IQGAP
T5 sequence (looked up): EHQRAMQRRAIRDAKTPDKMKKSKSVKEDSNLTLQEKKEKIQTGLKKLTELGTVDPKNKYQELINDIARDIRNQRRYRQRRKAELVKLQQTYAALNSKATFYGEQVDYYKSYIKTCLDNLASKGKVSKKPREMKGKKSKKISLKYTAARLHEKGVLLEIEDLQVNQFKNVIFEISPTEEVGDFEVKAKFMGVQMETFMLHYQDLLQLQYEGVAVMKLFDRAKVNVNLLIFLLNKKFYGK

[4] = target: T6, GTPase-activiating protein 1 1413-1567 (human, UniProt P46940 1413-1567); assay: yeast two-hybrid
T6 construct: prey (Gal4 AD-HA fusion); also called IQGAP1; IQGAP
T6 sequence (looked up): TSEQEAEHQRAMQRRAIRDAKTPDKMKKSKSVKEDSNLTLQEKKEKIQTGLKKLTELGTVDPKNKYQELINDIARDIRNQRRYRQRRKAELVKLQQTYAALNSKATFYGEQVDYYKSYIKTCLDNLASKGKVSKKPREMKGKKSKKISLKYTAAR

[5] = target: T7, GTPase-activiating protein 1 1308-1606 (human, UniProt P46940 1308-1606); assay: yeast two-hybrid
T7 construct: prey (Gal4 AD-HA fusion); also called IQGAP1; IQGAP
T7 sequence (looked up): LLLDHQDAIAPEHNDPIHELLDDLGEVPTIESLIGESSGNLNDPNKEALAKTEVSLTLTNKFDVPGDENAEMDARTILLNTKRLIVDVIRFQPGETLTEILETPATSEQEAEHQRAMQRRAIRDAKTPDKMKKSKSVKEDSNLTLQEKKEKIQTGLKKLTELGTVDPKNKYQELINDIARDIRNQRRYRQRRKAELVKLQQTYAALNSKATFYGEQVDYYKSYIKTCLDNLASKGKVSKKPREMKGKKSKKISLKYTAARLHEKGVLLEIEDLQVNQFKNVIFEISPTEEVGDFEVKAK

VPS28 protein 27-221 = target: T8, VPS28 protein 27-221 (human, UniProt Q9UK41 27-221); assay: yeast two-hybrid, breast and prostate cancer library
T8 construct: prey (Gal4 AD-HA fusion); also called vacuolar protein sorting 28
T8 sequence (looked up): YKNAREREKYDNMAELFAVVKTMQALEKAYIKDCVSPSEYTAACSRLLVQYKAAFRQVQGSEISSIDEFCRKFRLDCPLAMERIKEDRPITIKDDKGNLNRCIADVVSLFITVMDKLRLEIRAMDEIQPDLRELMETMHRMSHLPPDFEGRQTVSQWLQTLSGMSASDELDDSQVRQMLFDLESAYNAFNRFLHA

- binding result [1]: binds
- binding result [2]: binds
- binding result (Keratin 8 147-406): binds
- binding result (Hook2 protein 290-555): binds
- binding result [3]: binds
- binding result [4]: binds
- binding result [5]: binds
- binding result (VPS28 protein 27-221): binds
B1: Tumor Suppressor (TSG101) 240-391 (other, human, UniProt Q99816 240-390, looked up)
chain: WRMKEEMDRAQAELNALKRTEEDLKKGHQKLEEMVTRLDQEVAEVDKNIELLKKKDEELSSALEKMENQSENNDIDEVIIPTAPLYKQILNLYAEENAIEDTIFYLGEALRRGVIDLDVFLKHVRLLSRKQFQLRALMQKARKTAGLSDLY
notes: range 240-391; bait (Gal4 DBD fusion); also called TSG101 240-390
